Data on one molecule can be found in paper doi:10.1101/2024.01.22.576655 (bioRxiv, 2024).

One series concerns the target Ribosomal protein L29 (Escherichia coli (endogenous in …, UniProt P0A7M6 1-63)). The series is described as follows: cross-linking.
The series “cross-linking” concerns the molecule itself. The series is described as follows: cross-linking.

B1: DnaJ, recombinant (natural protein, Escherichia coli, UniProt P08622 1-376, looked up)
chain: MAKQDYYEILGVSKTAEEREIRKAYKRLAMKYHPDRNQGDKEAEAKFKEIKEAYEVLTDSQKRAAYDQYGHAAFEQGGMGGGGFGGGADFSDIFGDVFGDIFGGGRGRQRAARGADLRYNMELTLEEAVRGVTKEIRIPTLEECDVCHGSGAKPGTQPQTCPTCHGSGQVQMRQGFFAVQQTCPHCQGRGTLIKDPCNKCHGHGRVERSKTLSVKIPAGVDTGDRIRLAGEGEAGEHGAPAGDLYVQVQVKQHPIFEREGNNLYCEVPINFAMAALGGEIEVPTLDGRVKLKVPGETQTGKLFRMRGKGVKSVRGGAQGDLLCRVVVETPVGLNERQKQLLQELQESFGGPTGEHNSPRSKSFFDGVKKFFDDLTR
Turning to B1, the binding result with Ribosomal protein L29 and in the series “cross-linking” was “binds” each time.
